# * marks the point of attachment. C27H50N3O2SC(O)‑ = not defined here; Palmitoyl = CCCCCCCCCCCCCCCC(=O)*
# Key:
# [1] = target: T1, CXCR4 receptor (human, UniProt P61073 1-352); experiment: cell-based or functional assay
# [2] = target: T1, CXCR4 receptor; experiment: cell-based or functional assay; remark: listed apart in the source
# T1 sequence (P61073 whole entry): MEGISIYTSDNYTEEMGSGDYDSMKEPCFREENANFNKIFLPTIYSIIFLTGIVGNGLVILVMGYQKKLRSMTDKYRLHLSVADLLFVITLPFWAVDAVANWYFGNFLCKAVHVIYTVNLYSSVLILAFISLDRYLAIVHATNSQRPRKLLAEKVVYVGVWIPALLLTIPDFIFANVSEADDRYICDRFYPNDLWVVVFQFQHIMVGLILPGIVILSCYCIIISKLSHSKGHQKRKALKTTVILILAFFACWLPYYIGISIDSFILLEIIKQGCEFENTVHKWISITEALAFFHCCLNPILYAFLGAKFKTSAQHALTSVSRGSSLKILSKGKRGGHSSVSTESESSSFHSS
binder,measurement,setting,value
Palmitoyl-LSHSKGHQKRKALK-NH2 (SMILES CCCCCCCCCCCCCCCC(=O)N[C@@H](CC(C)C)C(=O)N[C@@H](CO)C(=O)N[C@@H](Cc1c[nH]cn1)C(=O)N[C@@H](CO)C(=O)N[C@@H](CCCCN)C(=O)NCC(=O)N[C@@H](Cc1c[nH]cn1)C(=O)N[C@@H](CCC(N)=O)C(=O)N[C@@H](CCCCN)C(=O)N[C@@H](CCCNC(=N)N)C(=O)N[C@@H](CCCCN)C(=O)N[C@@H](C)C(=O)N[C@@H](CC(C)C)C(=O)N[C@@H](CCCCN)C(N)=O) [CXCR4 i3 loop compound 95],"AUC (% of vehicle), chemotaxis, CEM, 1.0 uM",[1],77.5 % of vehicle
same,"Max (% of vehicle), chemotaxis, CEM, 1.0 uM",[1],92.1 % of vehicle
same,"Peak Ratio, chemotaxis, CEM, 1.0 uM",[1],1
Palmitoyl-KLSHSKGHQKRKALKTTV-NH2 (SMILES CCCCCCCCCCCCCCCC(=O)N[C@@H](CCCCN)C(=O)N[C@@H](CC(C)C)C(=O)N[C@@H](CO)C(=O)N[C@@H](Cc1c[nH]cn1)C(=O)N[C@@H](CO)C(=O)N[C@@H](CCCCN)C(=O)NCC(=O)N[C@@H](Cc1c[nH]cn1)C(=O)N[C@@H](CCC(N)=O)C(=O)N[C@@H](CCCCN)C(=O)N[C@@H](CCCNC(=N)N)C(=O)N[C@@H](CCCCN)C(=O)N[C@@H](C)C(=O)N[C@@H](CC(C)C)C(=O)N[C@@H](CCCCN)C(=O)N[C@H](C(=O)N[C@H](C(=O)N[C@H](C(N)=O)C(C)C)[C@@H](C)O)[C@@H](C)O) [Compound No. 90 (Pal-KLSHSKGHQKRKALKTTV-amide)],"Peak Ratio, chemotaxis, CEM, 0.01 uM",[1],1
same,"Peak Ratio, chemotaxis, CEM, 0.03 uM",[1],1
same,"Peak Ratio, chemotaxis, CEM, 0.1 uM",[1],0.2
same,"Peak Ratio, chemotaxis, CEM, 0.3 uM",[1],1
same,"Peak Ratio, chemotaxis, CEM, 3.0 uM",[1],1
Palmitoyl-HSKGHQKRKALKT-NH2 (SMILES CCCCCCCCCCCCCCCC(=O)N[C@@H](Cc1c[nH]cn1)C(=O)N[C@@H](CO)C(=O)N[C@@H](CCCCN)C(=O)NCC(=O)N[C@@H](Cc1c[nH]cn1)C(=O)N[C@@H](CCC(N)=O)C(=O)N[C@@H](CCCCN)C(=O)N[C@@H](CCCNC(=N)N)C(=O)N[C@@H](CCCCN)C(=O)N[C@@H](C)C(=O)N[C@@H](CC(C)C)C(=O)N[C@@H](CCCCN)C(=O)N[C@H](C(N)=O)[C@@H](C)O) [CXCR4 i3 loop compound 97],"AUC (% of vehicle), chemotaxis, CEM, 1.0 uM",[1],48.9 % of vehicle
same,"Max (% of vehicle), chemotaxis, CEM, 1.0 uM",[1],54.7 % of vehicle
same,"Peak Ratio, chemotaxis, CEM, 1.0 uM",[1],0.2
Palmitoyl-SHSKGHQKRKALK-NH2 (SMILES CCCCCCCCCCCCCCCC(=O)N[C@@H](CO)C(=O)N[C@@H](Cc1c[nH]cn1)C(=O)N[C@@H](CO)C(=O)N[C@@H](CCCCN)C(=O)NCC(=O)N[C@@H](Cc1c[nH]cn1)C(=O)N[C@@H](CCC(N)=O)C(=O)N[C@@H](CCCCN)C(=O)N[C@@H](CCCNC(=N)N)C(=O)N[C@@H](CCCCN)C(=O)N[C@@H](C)C(=O)N[C@@H](CC(C)C)C(=O)N[C@@H](CCCCN)C(N)=O) [CXCR4 i3 loop compound 96],"AUC (% of vehicle), chemotaxis, CEM, 1.0 uM",[1],34.2 % of vehicle
same,"Max (% of vehicle), chemotaxis, CEM, 1.0 uM",[1],63.1 % of vehicle
same,"Peak Ratio, chemotaxis, CEM, 1.0 uM",[1],1
Palmitoyl-KLSHSKGHQKRKAL-NH2 (SMILES CCCCCCCCCCCCCCCC(=O)N[C@@H](CCCCN)C(=O)N[C@@H](CC(C)C)C(=O)N[C@@H](CO)C(=O)N[C@@H](Cc1c[nH]cn1)C(=O)N[C@@H](CO)C(=O)N[C@@H](CCCCN)C(=O)NCC(=O)N[C@@H](Cc1c[nH]cn1)C(=O)N[C@@H](CCC(N)=O)C(=O)N[C@@H](CCCCN)C(=O)N[C@@H](CCCNC(=N)N)C(=O)N[C@@H](CCCCN)C(=O)N[C@@H](C)C(=O)N[C@@H](CC(C)C)C(N)=O) [CXCR4 i3 loop compound 93],"AUC (% of vehicle), chemotaxis, CEM, 1.0 uM",[1],15.9 % of vehicle
same,"Max (% of vehicle), chemotaxis, CEM, 1.0 uM",[1],54.8 % of vehicle
same,"Peak Ratio, chemotaxis, CEM, 1.0 uM",[1],0.2
Palmitoyl-KKLRSMTDKYRLHLSV-NH2 (SMILES CCCCCCCCCCCCCCCC(=O)N[C@@H](CCCCN)C(=O)N[C@@H](CCCCN)C(=O)N[C@@H](CC(C)C)C(=O)N[C@@H](CCCNC(=N)N)C(=O)N[C@@H](CO)C(=O)N[C@@H](CCSC)C(=O)N[C@H](C(=O)N[C@@H](CC(=O)O)C(=O)N[C@@H](CCCCN)C(=O)N[C@@H](Cc1ccc(O)cc1)C(=O)N[C@@H](CCCNC(=N)N)C(=O)N[C@@H](CC(C)C)C(=O)N[C@@H](Cc1c[nH]cn1)C(=O)N[C@@H](CC(C)C)C(=O)N[C@@H](CO)C(=O)N[C@H](C(N)=O)C(C)C)[C@@H](C)O) [CXCR4 i1 loop compound 41],"AUC (% of), CHTX, CEM, 1.0 uM",[2],66.7%
same,"AUC (% of), CHTX, SUP B-15, 1.0 uM",[2],51.7%
same,"Max (% of), CHTX, CEM, 1.0 uM",[2],76.8%
same,"Max (% of), CHTX, SUP B-15, 1.0 uM",[2],41.7%
same,"Peak Ratio, CHTX, CEM, 1.0 uM",[2],0.01
same,"Peak Ratio, CHTX, SUP B-15, 1.0 uM",[2],0.04
Palmitoyl-KLSHSKGHQKRKA-NH2 (SMILES CCCCCCCCCCCCCCCC(=O)N[C@@H](CCCCN)C(=O)N[C@@H](CC(C)C)C(=O)N[C@@H](CO)C(=O)N[C@@H](Cc1c[nH]cn1)C(=O)N[C@@H](CO)C(=O)N[C@@H](CCCCN)C(=O)NCC(=O)N[C@@H](Cc1c[nH]cn1)C(=O)N[C@@H](CCC(N)=O)C(=O)N[C@@H](CCCCN)C(=O)N[C@@H](CCCNC(=N)N)C(=O)N[C@@H](CCCCN)C(=O)N[C@@H](C)C(N)=O) [CXCR4 i3 loop compound 94],"AUC (% of vehicle), chemotaxis, CEM, 1.0 uM",[1],65.3 % of vehicle
same,"Max (% of vehicle), chemotaxis, CEM, 1.0 uM",[1],80.5 % of vehicle
same,"Peak Ratio, chemotaxis, CEM, 1.0 uM",[1],1
Palmitoyl-SKLSHSKGHQKRKALKTTVIL-NH2 (SMILES CCCCCCCCCCCCCCCC(=O)N[C@@H](CO)C(=O)N[C@@H](CCCCN)C(=O)N[C@@H](CC(C)C)C(=O)N[C@@H](CO)C(=O)N[C@@H](Cc1c[nH]cn1)C(=O)N[C@@H](CO)C(=O)N[C@@H](CCCCN)C(=O)NCC(=O)N[C@@H](Cc1c[nH]cn1)C(=O)N[C@@H](CCC(N)=O)C(=O)N[C@@H](CCCCN)C(=O)N[C@@H](CCCNC(=N)N)C(=O)N[C@@H](CCCCN)C(=O)N[C@@H](C)C(=O)N[C@@H](CC(C)C)C(=O)N[C@@H](CCCCN)C(=O)N[C@H](C(=O)N[C@H](C(=O)N[C@H](C(=O)N[C@H](C(=O)N[C@@H](CC(C)C)C(N)=O)[C@@H](C)CC)C(C)C)[C@@H](C)O)[C@@H](C)O) [Compound No. 88 (Pal-SKLSHSKGHQKRKALKTTVIL-amide)],"AUC (% of vehicle), chemotaxis, CEM, 1.0 uM",[1],144 % of vehicle
same,"Max (% of vehicle), chemotaxis, CEM, 1.0 uM",[1],132 % of vehicle
same,"Peak Ratio, chemotaxis, CEM, 0.01 uM",[1],0.04
same,"Peak Ratio, chemotaxis, CEM, 0.03 uM",[1],0.04
same,"Peak Ratio, chemotaxis, CEM, 0.1 uM",[1],0.04
same,"Peak Ratio, chemotaxis, CEM, 0.3 uM",[1],0.2
same,"Peak Ratio, chemotaxis, CEM, 1.0 uM",[1],1
same,"Peak Ratio, chemotaxis, CEM, 3.0 uM",[1],1
Palmitoyl-KKLRSMTDKYRLHL-NH2 (SMILES CCCCCCCCCCCCCCCC(=O)N[C@@H](CCCCN)C(=O)N[C@@H](CCCCN)C(=O)N[C@@H](CC(C)C)C(=O)N[C@@H](CCCNC(=N)N)C(=O)N[C@@H](CO)C(=O)N[C@@H](CCSC)C(=O)N[C@H](C(=O)N[C@@H](CC(=O)O)C(=O)N[C@@H](CCCCN)C(=O)N[C@@H](Cc1ccc(O)cc1)C(=O)N[C@@H](CCCNC(=N)N)C(=O)N[C@@H](CC(C)C)C(=O)N[C@@H](Cc1c[nH]cn1)C(=O)N[C@@H](CC(C)C)C(N)=O)[C@@H](C)O) [CXCR4 i1 loop compound 42],"AUC (% of), CHTX, SUP B-15, 1.0 uM",[2],43.8%
same,"Max (% of), CHTX, SUP B-15, 1.0 uM",[2],33.5%
same,"Peak Ratio, CHTX, CEM, 1.0 uM (row labelled 46, sequence of 42)",[2],0.01
same,"Peak Ratio, CHTX, SUP B-15, 1.0 uM",[2],0.2
Palmitoyl-YQKKLRSMTDKYRLHLSV-NH2 (SMILES CCCCCCCCCCCCCCCC(=O)N[C@@H](Cc1ccc(O)cc1)C(=O)N[C@@H](CCC(N)=O)C(=O)N[C@@H](CCCCN)C(=O)N[C@@H](CCCCN)C(=O)N[C@@H](CC(C)C)C(=O)N[C@@H](CCCNC(=N)N)C(=O)N[C@@H](CO)C(=O)N[C@@H](CCSC)C(=O)N[C@H](C(=O)N[C@@H](CC(=O)O)C(=O)N[C@@H](CCCCN)C(=O)N[C@@H](Cc1ccc(O)cc1)C(=O)N[C@@H](CCCNC(=N)N)C(=O)N[C@@H](CC(C)C)C(=O)N[C@@H](Cc1c[nH]cn1)C(=O)N[C@@H](CC(C)C)C(=O)N[C@@H](CO)C(=O)N[C@H](C(N)=O)C(C)C)[C@@H](C)O) [CXCR4 i1 loop compound 40],"AUC (% of), CHTX, SUP B-15, 1.0 uM",[2],71.9%
same,"Max (% of), CHTX, SUP B-15, 1.0 uM",[2],71.2%
same,"Peak Ratio, CHTX, SUP B-15, 1.0 uM",[2],0.2
Palmitoyl-KLSHSKGHQKRKALK-NH2 (SMILES CCCCCCCCCCCCCCCC(=O)N[C@@H](CCCCN)C(=O)N[C@@H](CC(C)C)C(=O)N[C@@H](CO)C(=O)N[C@@H](Cc1c[nH]cn1)C(=O)N[C@@H](CO)C(=O)N[C@@H](CCCCN)C(=O)NCC(=O)N[C@@H](Cc1c[nH]cn1)C(=O)N[C@@H](CCC(N)=O)C(=O)N[C@@H](CCCCN)C(=O)N[C@@H](CCCNC(=N)N)C(=O)N[C@@H](CCCCN)C(=O)N[C@@H](C)C(=O)N[C@@H](CC(C)C)C(=O)N[C@@H](CCCCN)C(N)=O) [CXCR4 i3 loop compound 92],"Peak Ratio, chemotaxis, CEM, 0.01 uM",[1],0.2
same,"Peak Ratio, chemotaxis, CEM, 0.03 uM",[1],0.2
same,"Peak Ratio, chemotaxis, CEM, 0.1 uM",[1],0.2
same,"Peak Ratio, chemotaxis, CEM, 0.3 uM",[1],0.2
same,"Peak Ratio, chemotaxis, CEM, 1.0 uM",[1],0.2
same,"Peak Ratio, chemotaxis, CEM, 3.0 uM",[1],1
{C27H50N3O2SC(O)‑}-HSKGHQKRKQALK-NH2 (reading uncertain) [CXCR4 i3 loop compound 87],"AUC (% of vehicle), chemotaxis, CEM, 1.0 uM",[1],52.6 % of vehicle
same,"Max (% of vehicle), chemotaxis, CEM, 1.0 uM",[1],76.1 % of vehicle
same,"Peak Ratio, chemotaxis, CEM, 1.0 uM",[1],0.2
Palmitoyl-KLSHSKGHQKRKALKTTVIL-NH2 (SMILES CCCCCCCCCCCCCCCC(=O)N[C@@H](CCCCN)C(=O)N[C@@H](CC(C)C)C(=O)N[C@@H](CO)C(=O)N[C@@H](Cc1c[nH]cn1)C(=O)N[C@@H](CO)C(=O)N[C@@H](CCCCN)C(=O)NCC(=O)N[C@@H](Cc1c[nH]cn1)C(=O)N[C@@H](CCC(N)=O)C(=O)N[C@@H](CCCCN)C(=O)N[C@@H](CCCNC(=N)N)C(=O)N[C@@H](CCCCN)C(=O)N[C@@H](C)C(=O)N[C@@H](CC(C)C)C(=O)N[C@@H](CCCCN)C(=O)N[C@H](C(=O)N[C@H](C(=O)N[C@H](C(=O)N[C@H](C(=O)N[C@@H](CC(C)C)C(N)=O)[C@@H](C)CC)C(C)C)[C@@H](C)O)[C@@H](C)O) [CXCR4 i3 loop compound 89],"AUC (% of vehicle), chemotaxis, CEM, 1.0 uM",[1],37.5 % of vehicle
same,"Max (% of vehicle), chemotaxis, CEM, 1.0 uM",[1],59.7 % of vehicle
same,"Peak Ratio, chemotaxis, CEM, 1.0 uM",[1],0.04

# Reference: patent US20130210709A1 (ANCHOR THERAPEUTICS, published 2013)
